Source: paper PMC8153946, “Substrate Selectivity of Coumarin Derivatives by Human CYP1 Enzymes: In Vitro Enzyme Kinetics and In Silico Modeling” (ACS Omega, 2021)
Marks after values point to notes of the source that are not given here.

Key:
Assay in all cases: Michaelis–Menten kinetics of oxidation to fluorescent 7-hydroxy metabolite by recombinant CYP1A1
Format in all cases: biochemical, human
Conditions in all cases: other: recombinant CYP1A1, 100 mM Tris-HCl pH 7.4, 37 °C, 95% confidence interval in brackets
[1] = substrate: CC(=O)Oc1ccc(-c2cc3cc(Cl)ccc3oc2=O)cc1
Experimental: (§1) Baculovirus-insect cell-expressed human CYP1A1, CYP1A2, CYP1B1, CYP2A6, CYP2B6, CYP2C8, CYP2C9, CYP2C19, CYP2D6, CYP2E1, CYP3A4, CYP3A5, and CYP3A7 were purchased from BD Biosciences Discovery Labware (Woburn, MA, USA) and used according to the manufacturer’s instructions.
(§2) The kinetic assays were carried out in 100 μL volume containing 100 mM Tris-HCl buffer pH 7.4, 0–40 μM coumarin derivative or 0–10 μM 7-ethoxyresorufin, 1–25 nM recombinant CYP or 0–0.1 g/L microsomal protein, and 20% NADPH regenerating system. Incubations took place at 37 °C in 96-multiwell plates; the fluorescence was measured with a Victor[2] plate reader (PerkinElmer Life Sciences, Turku, Finland). The detailed conditions are described in the figures and tables. The reaction was started by adding NADPH, and fluorescence was measured at 2 min intervals for 40 min using excitation at 405 nm and emission at 460 nm for oxidation of coumarin derivatives[18] and excitation at 570 nm and emission at 615 nm for ethoxyresorufin or pentoxyresorufin 7-O-dealkylations. Incubations without the substrate, enzyme, or NADPH were used as blank reactions. Resorufin was used as a standard, and 3-(4-fluorophenyl)-7-hydroxycoumarin was used as the surrogate standards to calculate the amount of product formed. The linear phase of the reactions was used for calculations.
(§3) Enzyme kinetic parameters were analyzed using the nonlinear Michaelis–Menten equation v = Vmax × S/(Km + S), in which v is the rate for 7-hydroxylation of a coumarin derivative, S is its concentration, and Vmax value is the limiting rate of the reaction of 7-hydroxylation, which reached a half-maximal rate at a concentration of Km for the substrate.

[2] = substrate: CCCCCOc1ccc2nc3ccc(=O)cc-3oc2c1
Experimental: as §1, §2, §3

[3] = substrate: CCOc1ccc2ccc(=O)oc2c1
Experimental: as §1, §2, §3

[4] = substrate: CCOc1ccc2nc3ccc(=O)cc-3oc2c1
Experimental: as §1, §2, §3

[5] = substrate: COc1ccc(-c2cc3cc(OC(C)=O)ccc3oc2=O)cc1
Experimental: as §1, §2, §3

[6] = substrate: COc1ccc2cc(-c3ccc(OC(F)(F)F)cc3)c(=O)oc2c1
Experimental: as §1, §2, §3

[7] = substrate: COc1ccc2oc(=O)c(-c3ccc(O)c(F)c3)cc2c1
Experimental: as §1, §2, §3

[8] = substrate: COc1ccc2oc(=O)c(-c3ccc(OC(F)(F)F)cc3)cc2c1
Experimental: as §1, §2, §3

[9] = substrate: COc1cccc(-c2cc3cc(OC)ccc3oc2=O)c1
Experimental: as §1, §2, §3

[10] = substrate: O=c1oc2ccc(O)cc2cc1-c1cccc(O)c1
Experimental: as §1, §2, §3

B1: human CYP1A1 (Homo sapiens) (protein)
chain: MLFPISMSATEFLLASVIFCLVFWVIRASRPQVPKGLKNPPGPWGWPLIGHMLTLGKNPHLALSRMSQQYGDVLQIRIGSTPVVVLSGLDTIRQALVRQGDDFKGRPDLYTFTLISNGQSMSFSPDSGPVWAARRRLAQNGLKSFSIASDPASSTSCYLEEHVSKEAEVLISTLQELMAGPGHFNPYRYVVVSVTNVICAICFGRRYDHNHQELLSLVNLNNNFGEVVGSGNPADFIPILRYLPNPSLNAFKDLNEKFYSFMQKMVKEHYKTFEKGHIRDITDSLIEHCQEKQLDENANVQLSDEKIINIVLDLFGAGFDTVTTAISWSLMYLVMNPRVQRKIQEELDTVIGRSRRPRLSDRSHLPYMEAFILETFRHSSFVPFTIPHSTTRDTSLKGFYIPKGRCVFVNQWQINHDQKLWVNPSEFLPERFLTPDGAIDKVLSEKVIIFGMGKRKCIGETIARWEVFLFLAILLQRVEFSVPLGVKVDMTPIYGLTMKHACCEHFQMQLRS
notes: purchased BD Biosciences Discovery Labware (Woburn, MA, USA); host or cells: baculovirus-insect cells
Km [1]: 0.41 (0.26–0.55) μM | kcat [1]: 6.5 (5.9–7.1) mol/(min·mol CYP) | Km [2]: 0.74 (0.54–0.94) μM | kcat [2]: 1.35 (1.19–1.50) mol/(min·mol CYP) | Km [3]: 11.9 (0–25.1) μM | kcat [3]: 26.2 (14.5–38) mol/(min·mol CYP) | Km [4]: 0.054 (0.035–0.075) μM | kcat [4]: 10.3 (9.3–11.4) mol/(min·mol CYP) | Km [5]: 1.04 (0.65–1.42) μM | kcat [5]: 7.5 (7–8.1) mol/(min·mol CYP) | Km [6]: 9.7 (4.8–14.6) μM | kcat [6]: 4.2 (3.3–5.1) mol/(min·mol CYP) | Km [7]: 10.7 (2.6–18.7) ^b μM | kcat [7]: 32 (18–46) mol/(min·mol CYP) | Km [8]: 4.8 (2.6–6.9) μM | kcat [8]: 12.6 (10.6–14.6) mol/(min·mol CYP) | Km [9]: 0.96 (0.4–1.52) μM | kcat [9]: 24.2 (19.4–29) mol/(min·mol CYP) | Km [10]: 2.11 (0.17–4.1) μM | kcat [10]: 4.0 (3.0–5.0) mol/(min·mol CYP)
